Results reported in the supplement of paper PMC12764529.
± gives the half width of the 95% confidence interval.

Key:
[1] = folding stability dG unfold from chymotrypsin proteolysis; higher = more stable
Experimental: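 Folding stability of de novo designed mini-proteins (<80 aa, no Cys; designed by TrROS, TrMRF, ProteinMPNN and the joint model) was measured by cDNA display proteolysis with trypsin and chymotrypsin. Each protease was used at 11 concentrations in a threefold dilution series plus a no-protease condition. K50 was inferred by Bayesian fitting of sequencing counts, and dG unfold was derived against a sequence-predicted unfolded-state K50 (Tsuboyama et al. method). Sequences shown include variable-length N-terminal GS-type padding (SAGGSAGG...) inside a display construct carrying a PA tag. Rows were kept only if the AF2 dimer inter-PAE was >15, to exclude likely homo-oligomers.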

[2] = folding stability dG unfold (combined trypsin and chymotrypsin); higher = more stable
In short: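 How resistant each design was to proteolysis was captured as K50, inferred by Bayesian fitting of sequencing counts. Unfolding free energy was then derived relative to a sequence-predicted unfolded-state K50 and a shared folded-state K50, per protease or combined. Digestion used trypsin and chymotrypsin at 11 threefold-diluted concentrations plus a no-protease condition, on mini-proteins under 80 residues without cysteine in a PA-tagged cDNA display construct. Designs were kept only when AlphaFold2 dimer inter-PAE was above 15.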

| Sequence | folding stability dG unfold [1] | folding stability dG unfold [2] |
| --- | --- | --- |
| SAGGSAGGSAGGMVPGETVTITIPVPPTGKEVPVEISTTLPPEEREALAEAKAAELEAALSAGGSAGGSAGG [r7_957_JUSTAS] | 0.602 ± 0.025 kcal/mol | -0.199 ± 0.11 kcal/mol |
| SAGGSAGGSAGGNKKKIELHFFFDPGQPAEEAKDFIRGAALENGDTITDVDIHWVPPEDFSAGGSAGGSAGG [r7_703_TrROS] | 0.201 ± 0.11 kcal/mol | -0.384 ± 0.3 kcal/mol |
| SAGGSAGGSAGGPALAEELARKLPPGARVRVRVERDADGNLTITVEVEPAPPVEVVEEESAGGSAGGSAGGS [r10_385_TrROS_Hall] | 0.366 ± 0.044 kcal/mol | -0.06 ± 0.23 kcal/mol |
| SAGGSAGGSAGGPKVTVFDDHPKKVVLVEFPDKPILAVYDPVTKEVVLLNPDTDELLPLSAGGSAGGSAGGS [r10_434_TrMRF] | -0.551 ± 0.22 kcal/mol | -0.889 ± 0.47 kcal/mol |
| SAGGSAGGSAGGPLLALFDPVPGRVVVVGLRPLPEDSYELDPYVLELDPTTGEAKVRKASAGGSAGGSAGGS [r10_1041_TrMRF] | -0.547 ± 0.42 kcal/mol | -0.852 ± 0.59 kcal/mol |
| SAGGSAGGSAGGPVVTETPTTSVVYDPAKGTVTYVTPTVVTFPDGTTTTTVASTTVPLPASAGGSAGGSAGG [r11_308_JUSTAS] | 0.531 ± 0.15 kcal/mol | 0.0838 ± 0.2 kcal/mol |
| SAGGSAGGSAGGPWKIKEIETVPEGGKERMTIKIEDDNGKPKKPVHMPPDDLDNLPPDLISAGGSAGGSAGG [r7_263_TrROS] | -0.605 ± 0.24 kcal/mol | < -1 kcal/mol |
| SAGGSAGGSAGGRTYRLTLTRPDGRPLTFEVPTDTAPEHVELLKSLFPDEEIEADISDVESAGGSAGGSAGG [r7_349_TrMRF] | 0.491 ± 0.22 kcal/mol | -0.652 ± 0.46 kcal/mol |
| SAGGSAGGSAGGSAAEFVAAHPDVEARPVEEGPGSVLVALRPPGGPELLVRVEGAAVTLESAGGSAGGSAGG [r7_26_JUSTAS] | -0.459 ± 0.34 kcal/mol | < -1 kcal/mol |
| SAGGSAGGSAGGSAPYALVEVLPGGVVVVAYPDGSRRLVEVERDPSSDLWRVLREEDLPSAGGSAGGSAGGS [r4_247_JUSTAS] | 0.688 ± 0.1 kcal/mol | 0.278 ± 0.068 kcal/mol |
| SAGGSAGGSAGGSEEKPLVIPIPAHPDIPAEVVRKAVEPLTGVPIEAVLGDEDTLLVVGSAGGSAGGSAGGS [r4_469_TrMRF] | 0.661 ± 0.022 kcal/mol | 0.187 ± 0.077 kcal/mol |
| SAGGSAGGSAGGSFTLTTPGRTETVPAGSEVYFGNGIKLHPDLPLADIPPELLTPIGTRPSAGGSAGGSAGG [r17_511_TrMRF] | 0.48 ± 0.27 kcal/mol | -0.229 ± 0.24 kcal/mol |
| SAGGSAGGSAGGSGGVTVSQYEGGKATRTVTSFDPVNNSTSTTTTTTFTIPPDEPVTVSSAGGSAGGSAGGS [r10_1153_JUSTAS] | 0.236 ± 0.2 kcal/mol | -0.371 ± 0.29 kcal/mol |
| SAGGSAGGSAGGSGPEELAAAARAAHPELGAPVRVEVTYTPEAGEFPVRVFLPEDGAALSAGGSAGGSAGGS [r4_312_JUSTAS] | -0.335 ± 0.14 kcal/mol | < -1 kcal/mol |
| SAGGSAGGSAGGSGRVEIELEFKLENGFYVRIKAEIEFEEDGKIRIKVEIELLPEELEESAGGSAGGSAGGS [r4_297_TrROS_Hall] | 3.67 ± 0.34 kcal/mol | 3.89 ± 0.41 kcal/mol |
| SAGGSAGGSAGGSHIQFDPEGRWKIRNRDNNNTREFPADDLPKLPPDFDIPKGARIEPYSAGGSAGGSAGGS [r4_91_TrROS] | -0.134 ± 0.25 kcal/mol | -0.518 ± 0.19 kcal/mol |

| Sequence | folding stability dG unfold [1] | folding stability dG unfold [2] |
| --- | --- | --- |
| SAGGSAGGSAGGSHPVKITEITEFNPGDNRMRIDIKHPNGGKKEIVVPGMPVEEILNAISAGGSAGGSAGGS [r4_357_TrROS] | 0.0992 ± 0.031 kcal/mol | -0.635 ± 0.21 kcal/mol |
| SAGGSAGGSAGGSKIIRIKAKPNEKKEIKIDGKWYKLYADKDNPDRVYIERPDGTIDPASAGGSAGGSAGGS [r4_488_TrMRF] | 0.685 ± 0.14 kcal/mol | 0.26 ± 0.13 kcal/mol |
| SAGGSAGGSAGGSKRIRITIPENYRVRGPNGKQFSWNDIEELKASGFKPIEIEPLPPGASAGGSAGGSAGGS [r4_47_TrROS] | -1.06 ± 0.4 kcal/mol | < -1 kcal/mol |
| SAGGSAGGSAGGSLAPALAAAIAPLLPKDGTFVFVAEPVGDRLVIVTETRPLREDEERGSAGGSAGGSAGGS [r4_350_TrMRF] | 0.496 ± 0.047 kcal/mol | -0.707 ± 0.25 kcal/mol |
| SAGGSAGGSAGGSLEEKAEAAYKKNPTTVPVELPLPGGVPATLTVTRTSPDSLDITRTLSAGGSAGGSAGGS [r10_395_JUSTAS] | 0.232 ± 0.2 kcal/mol | < -1 kcal/mol |
| SAGGSAGGSAGGSMEVVETEEPGPGEERIRIVRFKEKTIVTRTPPDGVPTSEELPISELSAGGSAGGSAGGS [r10_1075_JUSTAS] | 0.0261 ± 0.2 kcal/mol | -0.247 ± 0.2 kcal/mol |
| SAGGSAGGSAGGSMKKVEVEIPYSFEGPPTFNPEEIEKKLKEEGINAKIKTKYIPKSKEKSAGGSAGGSAGG [r7_355_JUSTAS] | -0.145 ± 0.39 kcal/mol | -0.321 ± 0.7 kcal/mol |
| SAGGSAGGSAGGSMSTLSLTIPVGGEPVSVTVQQLYDPTKNTTTTLLPPEAAAVIARAAGSAGGSAGGSAGG [r11_91_JUSTAS] | -0.449 ± 0.19 kcal/mol | < -1 kcal/mol |
| SAGGSAGGSAGGSPFEGPRPVVVKPVSPEILAKTPPEEVKKRLKEELPESVTIVETNPLPSAGGSAGGSAGG [r7_487_JUSTAS] | 0.12 ± 0.1 kcal/mol | < -1 kcal/mol |
| SAGGSAGGSAGGSPSTRTPITVEVKSPTALSRFTYDTGLSPAEIAAPFAAGGYTVTFVSSAGGSAGGSAGGS [r10_540_JUSTAS] | -0.127 ± 0.22 kcal/mol | -0.538 ± 0.16 kcal/mol |
| SAGGSAGGSAGGSSRVLKGKDTTVVLYPDSVTFYPGSTGTPVVKSISDPEVVEEIKKLLSAGGSAGGSAGGS [r4_353_JUSTAS] | -0.192 ± 0.33 kcal/mol | < -1 kcal/mol |
| SAGGSAGGSAGGSSSSSGTTLVPVTITTETFLNDDTPVTTVTTVLKTLAPDETLADLLASAGGSAGGSAGGS [r4_283_JUSTAS] | -0.292 ± 0.11 kcal/mol | -0.519 ± 0.26 kcal/mol |
| SAGGSAGGSAGGSSVSVSFDPATGTRTVTYTTLDPSNGKILSSTTSTTAVALAATPAAASAGGSAGGSAGGS [r10_842_JUSTAS] | 0.661 ± 0.058 kcal/mol | -0.288 ± 0.17 kcal/mol |
| SAGGSAGGSAGGTIQWDPANGRIKITNPNGKKKTIPIPPDDPEEFLKELKDNGIDRIEPVSAGGSAGGSAGG [r7_139_TrROS] | 0.964 ± 0.075 kcal/mol | 0.38 ± 0.25 kcal/mol |
| SAGGSAGGSAGGTKELAEALRDAGYEVEYDKATNKIEVRPKPKPKPVVKTVTFVPKEDLSAGGSAGGSAGGS [r10_1173_TrROS_Hall] | -0.433 ± 0.11 kcal/mol | -0.51 ± 0.36 kcal/mol |
| SAGGSAGGSAGGTLIKTSDDTIVIPIGDPEEAEKAAEEIKAKLGDVDLKVEILSPEELRGSAGGSAGGSAGG [r7_645_JUSTAS] | 0.487 ± 0.032 kcal/mol | 0.13 ± 0.14 kcal/mol |
